# Experimental data published in the DeepSol protein solubility set.
# Test: soluble on expression in E. coli; label from the status in PepcDB or PDB records
row,Sequence,soluble on expression in E. coli
1,MADEIFKAFIGGLPYDSIATDIETILKHCKFTDEELKKFDIHLVHDRDSGSFKGFAYVTFENEQQMNTAISGLNGADFGNRVLKVNRAQQRDRSDRGGGRGGRGGNFGDRGGRGRGAGGFRRGGEGGRFNEGERRGGFGGGGHRGGYRQRRESEEQHKAEETSDPSAPPAERPRLNLKPRTTDAAEIEARKKQEEEETKRRQEKLFQ,not soluble
2,MREVLLEKLRTEKFLQIALDFIDINDAIKVVNEVKDLENEIIEIGTPLLKSFGIEGIRKIKSLVPDKIIVADTKTADAGDVEVEIAKLGGAHIMTVLGIMDDSTIYSAVKKARELDILVQADLINVKNVYERSKELKQLGVDIIGFHVGLDVQKSRGISVADLKNEIRKVSELNLIISIAGGLNKDRILELIDLPVSIYVVGGAITRSKEPKNVSKEIVNILKGR,not soluble
3,MAHHHHHHMPSGERRGRVGPVRFRTFLRNTVLDVMRSRGWLETDSDLGWDLFWADVGWIREVHDHVRLDDVQRINHFRNHFELTRKDFMVKNLKRMRKSLEREGRLEEATEFDFFPVTFSLPQDYGMFETEFRRQPNAIWIMKPPAKAQGKGIFLFSKISQIAEWRKDYKQRQVGAVGEKAGGPYGAEQVEPYLAQRYIENPHLVGGKKYDLRVYVLVTCYSPLTVWLHRTGFARFCHQRFSLRDIENTFIHVTNVAVQKTNPKYTPSSGCKYGLRNLRQYITASRGVETAQKLFDDIQNMILRSLHAVQKIIVQDKHCFELYGYDIMVDNDLHPWLIETNASPSLSAETPADYHLKFNMLEDMFSVIDIEKRRTGDEIRVGGFDLIWKNGPVGPACRGDAKGGGVTQSFLGCANELEIPISHMRMPPRLQQMDSSERLLT,not soluble
4,MEVKELERDKNRVVLEYVFGAEEIAQAEDKAVRYLNQRVEIPGFRKGRIPKNVLKMKLGEEFQEYTLDFLMDLIPDTLKDRKLILSPIVTERELKDVTARVVVEVHEEPEVRIGDISKIEVEKVDEEKVLEKYVERRIEDLRESHALLEPKEGPAEAGDLVRVNMEVYNEEGKKLTSREYEYVISEDEDRPFVKDLVGKKKGDVVEIEREYEGKKYTYKLEVEEVYKRTLPEIGDELAKSVNNEFETLEQLKESLKKEGKEIYDVEMKESMREQLLEKLPEIVEIEISDRTLEILVNEAINRLKREGRYEQIVSSYESEEKFREELKERILDDIKRDRVIEVLAQEKGISVNDEELEKEAEELAPFWGISPDRAKSLVKARQDLREELRWAILKRKVLDLLLQEVKVKVVEPKGEGDDSEGKEDNLEHHHHHH,soluble
5,MAHHHHHHMEGKKCFYITEKGKKQNFRNIKLITFDLDHTIWNIDGLLNYADKECYEYMKKNYRRLYDYLQEEYQLSITNLVKQLLENKIEDNNDGVQTLTNMRIDALKFLAKKTNYDEGKFVSEIQELWKEKKNDVHLFISPGTLEYLRELKRRGYTLGAITNGDSDVNGIKFLNEIFTFVIRSMDYNHSKPSVEIFNIAENILKKKNFHFEIHQWMHVGDDVYTDIMGAKNKNINCAWITMFRDGSEVPPNDWYPYLKLKLEENGDSHLSQYDPFADGLFSRFRRRDVVLPYEYIDIEIRHCRDLDAILA,soluble
6,MSLAGDDAVNLTLVTGAPANGGSCVAHHEGRVVFVRYALPGERVRARVTAQRGSYWHAEAFEVIDPSPDRIGSLCSIAGADGAGCCDLAFAAPEAARTLKAQVVANQLERLGRHSWQGEAQPLSDAGPTGWRIRVRLDVGADRRPGFHRYHSGELVTDLDCGQLPVGMLDGLVAADWPPEAQLYVALDDDGERHVVCSVRQGPRNRTRTVTNVVEGAYHAHQRVHRRSWRVPVTAFWQAHRDAAAVYSDLIADWAQPAPGMTAWDLYGGAGVFAAVLGEAVGESGRVLTVDTSRLASGAARAALVDLPQVEVVTGSVRRVLAVQPAGADLAVLDPPRSGAGREVVDLLAGAGVPRLIHIGCEAASFARDIGLYRGHGYAVEKIKVFDAFPLTHYVECVALLTRKVEGHHHHHH,soluble
7,MYTPLYRPRYPEGLDPGIQHGVLRLLNPDPRVGEAEHRLENLLEPPYGGPPPPYYQSRPLRPYCYVSAEAGLNNLDPAVPRFVEVLSQPLVYLSPQETLV,soluble
8,MHHHHHHSSGVDLGTENLYFQSMNITKGGLVLFSANSNSSCMELSKKIAERLGVEMGKVQVYQEPNRETRVQIQESVRGKDVFIIQTVSKDVNTTIMELLIMVYACKTSCAKSIIGVIPYFPYSKQCKMRKRGSIVSKLLASMMCKAGLTHLITMDLHQKEIQGFFNIPVDNLRASPFLLQYIQEEIPDYRNAVIVAKSPASAKRAQSFAERLRLGIAVIHGEAQDAESDLVDGRHSPPMVRSVAAIHPSLEIPMLIPKEKPPITVVGDVGGRIAIIVDDIIDDVDSFLAAAETLKERGAYKIFVMATHGLLSSDAPRRIEESAIDEVVVTNTIPHEVQKLQCPKIKTVDISMILSEAIRRIHNGESMSYLFRNIGLDD,soluble
9,MYFMKSKNRFLLISLLSFSTSVFADVNLYGPGGPHVPLIKVAESFEKSQSKRVNITFGPQATWNDKAKKNADILFGASEHSALAIAEGHSERFSKFNIHPVFMREAIILVKKGNPKNIKGMADLLKPGIGIVVNDGAGVSNTSGTAVWEDSVGRMKNVEKLQAFRSNIHVFAPNSGSARKAFVDGEDIDAWITWVDWAIANPTIGDMVRMEDEYRIYRDFNVVLAKNPSSEAIDFFDYLTKSKDAEAIFQHYGWFK,not soluble
10,MSSQNANLMREVRLFENHSEREQMENLSELFAVLNALEHLEKMFSRDHVSADEYKSECFKLIDQYKVTMRLVHGATSIEDFAKKYRLHCPAAIERIREGRPITVKDDQGNVLKHIASIVEQFITFLDALRLNTRAVDDLYPGLDDLYNAINTTSRVPIDAIVTTKVKKWHDRLSSMAASDEISDEDARQMIFDVESAYQAFNKALNELKH,soluble
11,GDALTSPQQTKLYLSSVLRDRQREAFYILFLDNQHRVIRDEILFEGTIDAASVYPREVVKRALHHNAAAVILAHNHPSGVAEPSQADRRITDRLRDALGLVEIRVLDHFVVGDGEVVSFAERGWI,soluble
12,MSECLMFGMDCEARCMTSMTADEENICFLVGTNNIKNDKNQVNKLFMDPEASRLMSKTFRHPAGEVRAIAAHPTKSTILATCTADFSSLGGTHSITIWNIEEDKRTLETVSRLPTEQVMSCLEWEPNSMKCAAMTPFRPEIQLLNMENGPEIVQNLKIPLENEEDEMFSATWSPHHDGNMLGVTGGRTAWCIDCRTDNEYLKIRDAHIHRTISMDFNPNLQHVIATCGDDGYVRIWDTRSTSSALTSLHPHAHWVWSVRFHPVHDQLLLTGGSDASVVLSCAQSVSSEQQIEFRDDEEEEEDDDLVEKLQDGQLERIDEHEDSVYACAWSSADPWTFASLSYDGRMIVSNVSRKHKYALMQL,not soluble
13,MGSDKIHHHHHHLSPSVYPKSMADMETIVTSVYANMVAVPLYGKRVMAKGTFCVDHTVDMAWTGDANWNQLATNQVTSDNAYIGTLWIGYYKMISCANTVLEQLERIDKEKFTDADLARLSQMKGEALFWRGWAHQQLVAFFGEGYPCNGDGDKKGVPVRLQVASTPDMLNIERSTVAEVYDQILKDYEAAKLLLPAVWEERADYPRPTSVAVASYIGQANLYMGNYDAAKKALKEVIDSSGKELLPFNEYAKMFNEDQEKFNRESILEINFRNGDTSGYFWYGEGSQYGLIAALCFQNASGDVEAAGWGNIFFHDANIKRFNGDPRLDIAALRPGTPVIMNGQQTQVLKYKDTEADIQGWSMRKYNPLKSTVNELNLGVGINMYLMRLADVYLMYAEACQATGDEVNARNYMNLVRRRAYNGDSSHDITASGEALRDAIREERFMEFCGEGVQHWQDVCRWKVLDEEISRWYGKTRVGNPHYDAKDLYFPIPKVEMENNPNMTQSIGYENE,not soluble
14,DYKLFITEGYEVGRVNGLAVIGESAGIVLPIIAEVTPSMSKSEGRVIATGRLQEIAREAVMNVSAIIKKYTGRDISNMDVHIQFVGTYEGVAGDSASISIATAVISAIEGIPVDQSVAMTGSLSVKGEVLPVGGVTQKIEAAIQAGLKKVIIPKDNIDDVLLDAEHEGKIEVIPVSRINEVLEHVLEDGKKKNRLMSKFKELELAAV,soluble
15,MAISLRQLEIFEKVAQCEHVTQASTQLFLTQSAVSMAIAELERVAGAPLFERRGKRLLLNDRGRKILPEAEEVVRRTRAIEQFLEDSAGEPRGVLNVGASTTIGNYILPELIAEFSGNYPDAKVLLTIGNAHQIEHALEKGELDLGLIEGIPHSGVLDSTPWKKDELVVVVGKGHPWACDGAASVEMLGNAPWIMRETGSGTREVFEGAMAGKGISFSISLELGHTEAIKKAIEAGLGVGCLSRIAVNRELEHGWLVEIACPLDLKRTLSLQTRQSGYKTRLLCAFWSLLNRHKDI,not soluble
16,MSSGVPVLHWNFGIGPITCHAWNKDRTQIAVSASSNDIHIFEWRNGDWQSIHTLSEHDLPVTGLDWGTKTNRIVSCSQDKNAFVWTFDKNVWKPELVLVRFNRAATYVKWSPLENKFAVGSGAKLVSVCYYEKENDWWVSKQIKKPIRSTVTCLDWHSNNVLLAVGSCDFKCRVFSAYVKEVDEKPSPNPWGQKMPFGQLMSEYSVGGWVHRVAFSPSGCRLAFVSHDSSVSFVDSTVDSQKVQNLLTIHLPFTTVEWITENSVVTAGHDCSPVLFVVSQDVLKEVCKLDVPSAAKSSTVNSALQLFKNIDRNNAAEKINVALKTLHQNRITQILPHSGTVGNVVKFTTCGTDGIVALWDLKNHPSLV,not soluble
17,MSLSFLKHVQDCNTHDLSNFVRFVIEGRRVGWVRKALAQRLKAHGRVFDVTRDAVLLSASLRTPQSRTRAVADVVDRLADEGVVPAPRGELYRVNQSWGEPTLMLLDRAVVPTFGVRAYGVHLNGYVGAGADLHLWIGRRSPDKSVAPGKLDNMVAGGQPADLSLRQNLIKECAEEADLPEALARQAIPVGAITYCMESPAGIKPDTLFLYDLALPEDFRPHNTDGEMADFMLWPAAKVVEAVRTTEAFKFNVNLTVIDFAIRHGLIDPDNEGHHHHHH,not soluble
18,MIGYPIVFRCCECTVEEQTMEHLESHIWSRHLQAFPFKCAYCDFPALSAISLMDHFAQNHSDVAIVEFKRNLEDEKRFRKMVADSIAIEIDETSQQDSSTQMTVLQPMMQQGTAQMILLPPEGSQYDEIVDHRGPDEDDFGVLDDDENIEELIDDDDDDDYIDELGNPVFIGAHDDSDYILEDDLSPQGPIRSSNNYHLKYIRTRRMDKLIDNVVVNATQRDSPEQEDCSTSGVAFADGQTNSGKMGRFSCDRCSRTFKYQSKLDEHRRTHLGVKPFQCHYCTRQFSQRGALKTHMRLHTGERPFVCQWECGKQFASSSAKSHHEKTHSGERPYICNVCGKSFTKNSHVIRHLKNIHNRELAQQDAMLRGDDVQSTDESLNIGSARSQMSDIEPRGKEIGVVHDIVEQIHEERKDFMRL,not soluble
19,MHQQLMVMIDRKRRRSFIMMRSMFSGVSGLQAHQTKMDVIGNNVANVNTVGFKSSRVTFQEVFSQTLKGASSPDPTTGRGGTNPMQVGLGLGVATIDTLMTRGSVQRTDNPTDLAIEGDGFFIVKGGSSDTFKFTRAGNFGIDRLGNLVTGSGLNVYGWQSYTKLPDGTYKFDTESQIEPINLYSDDVNKNKRMIAAKATTYAIFEGNLDASYSIYSSAASGTSSNNRFTMPVTVYDSLGNSYKINISFWKTDVTGGVTTWTWQVDSGNGVTASGATGTILFDDQGQVIESSAVTPSITIIPDSSVGSQNINVKLDFSRLTMYAADSSAKATNVDGYPAGSLVTFSIGSDGMIMGIYSNGQQQPLGLIALASFDNPAGLEKVGENMYIPTSNSGEFKKGVKAGTEGVGTLSPGTLEMSNVDLSKEFTEMIITQRGFQANSRIITTSDEMLQELVNLKR,not soluble
20,MGSDKIHHHHHHMGKKHTSSYEVAYYDGDFTGAMKIPALLAVVIKVSEEQTELLGRDAAYVAQFGLGWVITNYEIEIHRLPKVGEKVAITTQAMSYNKYFCYRNFWVHDEEGKECVFVKSTFVLMDQKNRKISSVLPEIIAPFASAAITKIYRHEKIEKVTEGNFLPYRVRFFDIDGNQHVNNAIYFNWLLDVLGYDFLTTHQPKKILVKFDKEVEYGQEVESHYEIVEQENQLKTRHEIRIDGQTYCEANIDWTN,not soluble
